Targets include MAGI3_4, Q5TCQ9; PTPN13_2, Q12923; TJP1_1, Q07157; PDLIM4, P50479; DLG5_2, Q8TDM6; AHNAK2, Q8IVF2; MAGIX, Q9H6Y5; MAGI3_5, Q5TCQ9; MAGI3_3, Q5TCQ9; RIMS1, Q86UR5.
Test in all cases: holdup assay
What all share (parameters): key: below the threshold = too weak to quantify, mostly under pKd 3.1 to 4

The target in the next test is T1, DLG3_1, Q92796.
T1 sequence (Q92796 125-227, limits assumed, looked up): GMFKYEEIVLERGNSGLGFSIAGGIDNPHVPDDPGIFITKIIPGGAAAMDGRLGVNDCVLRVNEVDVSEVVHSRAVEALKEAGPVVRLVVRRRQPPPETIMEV

In another test the target is T2, USH1C_3, Q9Y6N9.
T2 sequence (Q9Y6N9 447-547, limits assumed, looked up): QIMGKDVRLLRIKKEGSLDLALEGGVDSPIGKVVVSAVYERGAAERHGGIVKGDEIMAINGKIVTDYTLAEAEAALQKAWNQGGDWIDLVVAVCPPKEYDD

The next test deals with T3, MPDZ_3, O75970.
T3 sequence (O75970 372-473, limits assumed, looked up): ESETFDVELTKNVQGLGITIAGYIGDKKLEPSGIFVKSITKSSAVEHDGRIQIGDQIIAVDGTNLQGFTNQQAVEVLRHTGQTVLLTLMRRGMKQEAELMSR

Another test deals with T4, PDZD4, Q76G19.
T4 sequence (Q76G19 125-224, limits assumed, looked up): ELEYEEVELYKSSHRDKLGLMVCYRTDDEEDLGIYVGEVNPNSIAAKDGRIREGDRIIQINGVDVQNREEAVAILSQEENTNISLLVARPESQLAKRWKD

The next test concerns the target T5, MPDZ_7, O75970.
T5 sequence (O75970 1146-1253, limits assumed, looked up): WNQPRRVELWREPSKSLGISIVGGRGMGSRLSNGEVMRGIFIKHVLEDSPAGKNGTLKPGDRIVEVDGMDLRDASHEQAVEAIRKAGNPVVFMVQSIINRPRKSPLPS

A further test deals with T6, PDLIM3, Q53GG5.
T6 sequence (Q53GG5 1-94, limits assumed, looked up): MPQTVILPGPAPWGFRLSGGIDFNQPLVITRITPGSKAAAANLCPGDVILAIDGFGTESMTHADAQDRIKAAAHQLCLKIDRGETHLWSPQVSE

The next test has as its target T7, GRIP1_1, Q9Y3R0.
T7 sequence (Q9Y3R0 48-146, limits assumed, looked up): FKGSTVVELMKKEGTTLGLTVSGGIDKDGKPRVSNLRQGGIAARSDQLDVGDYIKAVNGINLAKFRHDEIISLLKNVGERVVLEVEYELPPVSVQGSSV

A further test addresses T8, MPP5, Q8N3R9.
T8 sequence (Q8N3R9 251-346, limits assumed, looked up): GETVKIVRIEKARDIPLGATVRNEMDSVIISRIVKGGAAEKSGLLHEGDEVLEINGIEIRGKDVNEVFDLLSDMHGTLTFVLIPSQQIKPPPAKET

The next test has as its target T9, SIPA1L3, O60292.
T9 sequence (O60292 961-1052, limits assumed, looked up): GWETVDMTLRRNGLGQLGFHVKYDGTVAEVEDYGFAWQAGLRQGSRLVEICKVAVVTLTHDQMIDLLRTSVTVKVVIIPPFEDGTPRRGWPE

The target in a further test is T10, PDZD8, Q8NEN9.
T10 sequence (Q8NEN9 361-459, limits assumed, looked up): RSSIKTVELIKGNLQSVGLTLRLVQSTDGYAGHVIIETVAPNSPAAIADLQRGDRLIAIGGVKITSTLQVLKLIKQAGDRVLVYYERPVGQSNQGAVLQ

In a further test the target is T11, PDZD11, Q5EBL8.
T11 sequence (Q5EBL8 42-139, limits assumed, looked up): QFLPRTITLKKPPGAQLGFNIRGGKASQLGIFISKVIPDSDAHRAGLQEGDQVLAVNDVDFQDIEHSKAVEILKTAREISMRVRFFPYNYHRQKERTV

The target of a further test is T12, PDZD7_1, Q9H5P4.
T12 sequence (Q9H5P4 81-178, limits assumed, looked up): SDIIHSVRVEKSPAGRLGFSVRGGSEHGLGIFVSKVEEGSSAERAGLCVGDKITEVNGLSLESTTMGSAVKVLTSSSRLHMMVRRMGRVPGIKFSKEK

The target of a further test is PDZD9, Q8IXQ8. The following applies: plain residues with an end cap or a label only (N-terminal biotin on a linker: (peg)3).
PDZD9, Q8IXQ8, sequence (Q8IXQ8 23-120): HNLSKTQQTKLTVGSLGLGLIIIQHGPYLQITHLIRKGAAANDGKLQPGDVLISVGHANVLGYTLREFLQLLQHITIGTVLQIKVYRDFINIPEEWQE
Another test deals with T13, CNKSR1, Q969H4.
T13 sequence (Q969H4 191-295, limits assumed, looked up): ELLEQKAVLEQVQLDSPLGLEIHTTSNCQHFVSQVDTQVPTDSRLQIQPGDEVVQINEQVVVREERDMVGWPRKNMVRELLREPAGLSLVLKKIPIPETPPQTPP
The following applies: plain residues with an end cap or a label only (N-terminal biotin on a linker: (peg)3).

Setting [1] is: plain residues with an end cap or a label only (N-terminal biotin on a linker: ado-ado).
The mark [2] stands for this setting: modified: phospho on T at position -2 from the C-terminal residue.
Setting [3] is: plain residues with an end cap or a label only (N-terminal biotin on a linker: (peg)3).

The term pKd denotes the negative decadic logarithm of the Kd, by convention in mol/L.

RIMS1, Q86UR5, sequence (Q86UR5 584-692): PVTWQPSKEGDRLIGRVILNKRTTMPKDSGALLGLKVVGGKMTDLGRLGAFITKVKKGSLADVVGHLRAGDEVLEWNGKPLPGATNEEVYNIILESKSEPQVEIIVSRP
AHNAK2, Q8IVF2, sequence (Q8IVF2 108-193): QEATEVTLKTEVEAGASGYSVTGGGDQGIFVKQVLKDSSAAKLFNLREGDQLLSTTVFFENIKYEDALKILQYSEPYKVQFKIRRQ
MAGIX, Q9H6Y5, sequence (Q9H6Y5 118-211): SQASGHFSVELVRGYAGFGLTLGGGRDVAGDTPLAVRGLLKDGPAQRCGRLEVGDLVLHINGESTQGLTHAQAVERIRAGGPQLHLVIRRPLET
MAGI3_5, Q5TCQ9, sequence (Q5TCQ9 847-941): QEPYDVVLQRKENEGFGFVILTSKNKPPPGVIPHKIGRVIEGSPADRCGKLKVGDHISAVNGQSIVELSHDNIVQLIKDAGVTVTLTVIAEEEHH
PDLIM4, P50479, sequence (P50479 1-83): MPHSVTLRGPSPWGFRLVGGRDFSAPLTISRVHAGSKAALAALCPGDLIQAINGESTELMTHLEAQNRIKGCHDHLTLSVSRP
TJP1_1, Q07157, sequence (Q07157 18-120): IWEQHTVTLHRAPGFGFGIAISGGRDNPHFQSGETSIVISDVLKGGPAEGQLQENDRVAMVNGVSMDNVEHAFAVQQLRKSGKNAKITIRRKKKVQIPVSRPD
MAGI3_3, Q5TCQ9, sequence (Q5TCQ9 572-655): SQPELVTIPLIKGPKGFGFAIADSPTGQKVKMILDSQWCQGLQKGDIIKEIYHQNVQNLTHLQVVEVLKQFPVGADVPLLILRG
DLG5_2, Q8TDM6, sequence (Q8TDM6 714-800): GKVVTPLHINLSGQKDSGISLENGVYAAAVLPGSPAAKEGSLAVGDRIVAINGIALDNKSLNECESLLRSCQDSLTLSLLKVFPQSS
MAGI3_4, Q5TCQ9, sequence (Q5TCQ9 716-815): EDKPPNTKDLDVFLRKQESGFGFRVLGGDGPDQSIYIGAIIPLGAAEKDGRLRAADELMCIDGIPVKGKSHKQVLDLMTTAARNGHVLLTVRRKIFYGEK
PTPN13_2, Q12923, sequence (Q12923 1363-1462): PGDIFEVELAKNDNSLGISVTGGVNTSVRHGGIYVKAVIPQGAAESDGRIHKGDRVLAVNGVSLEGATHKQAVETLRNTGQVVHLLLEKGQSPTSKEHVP

B1: TECPR2, O15040 (peptide)
chain: EDLEDEWEVI
For the molecule B1, the pKd result with DLG3_1, Q92796 (setting [1]) is on record as “below the threshold”.

B2: JUP, P14923 (peptide)
chain: PYPTADHMLA
Regarding B2, in the test with DLG3_1, Q92796 (setting [1]), the pKd result was “below the threshold”.

B3: HPV16-E6_-2P, P03126 (peptide)
chain: SSRTRRETQL
With B3, the pKd entry is given as “below the threshold” in the test with DLG3_1, Q92796 (setting [2]); “below the threshold” in the test with USH1C_3, Q9Y6N9 (setting [2]); “below the threshold” with MAGI3_4, Q5TCQ9 (setting [2]); “below the threshold” with MPDZ_3, O75970 (setting [2]); “below the threshold” with PTPN13_2, Q12923 (setting [2]); “below the threshold” in the test with TJP1_1, Q07157 (setting [2]). Further, the pKd result in the test with PDLIM4, P50479 (setting [2]) is listed as “below the threshold”; with DLG5_2, Q8TDM6 (setting [2]), “below the threshold”; in the test with PDZD4, Q76G19 (setting [2]) it was “below the threshold”; in the test with MPDZ_7, O75970 (setting [2]) it was “below the threshold”; with AHNAK2, Q8IVF2 (setting [2]) it was “below the threshold”; with MAGIX, Q9H6Y5 (setting [2]), “below the threshold”. Besides, the pKd result in the test with MAGI3_5, Q5TCQ9 (setting [2]) was “below the threshold”; with PDLIM3, Q53GG5 (setting [2]), “below the threshold”; with GRIP1_1, Q9Y3R0 (setting [2]), 4.61; in the test with MAGI3_3, Q5TCQ9 (setting [2]), “below the threshold”; with MPP5, Q8N3R9 (setting [2]) it was “below the threshold”; with SIPA1L3, O60292 (setting [2]), “below the threshold”. Further, the pKd result with RIMS1, Q86UR5 (setting [2]) was “below the threshold”; with PDZD8, Q8NEN9 (setting [2]) it was “below the threshold”; in the test with PDZD11, Q5EBL8 (setting [2]), “below the threshold”; in the test with PDZD7_1, Q9H5P4 (setting [2]) it was “below the threshold”.

B4: PLXNB1, O43157 (peptide)
chain: AAVENKVTDL
For B4, in the test with DLG3_1, Q92796 (setting [1]), the pKd entry was “below the threshold”.

B5: ADGRA3, Q8IWK6 (peptide)
chain: TGLWKHETTV
Molecule B5 showed a negative logarithm of the Kd (pKd) in the test with DLG3_1, Q92796 (setting [1]) of 4.69.

B6: SDC2, P34741 (peptide)
chain: QKAPTKEFYA
With B6, the pKd result in the test with DLG3_1, Q92796 (setting [1]) is reported as “below the threshold”.

B7: PRKACA, P17612 (peptide)
chain: EKCGKEFSEF
Turning to B7, the pKd entry with DLG3_1, Q92796 (setting [1]) was “below the threshold”.

B8: HBV-HBc, P03193 (peptide)
chain: RRRRSQSRESQC
With B8, the pKd with DLG3_1, Q92796 (setting [3]) was 3.59; in the test with USH1C_3, Q9Y6N9 (setting [3]) it was “below the threshold”; in the test with MAGI3_4, Q5TCQ9 (setting [3]) it was “below the threshold”; with MPDZ_3, O75970 (setting [3]) it was “below the threshold”; with PTPN13_2, Q12923 (setting [3]) it was 3.99; with TJP1_1, Q07157 (setting [3]), “below the threshold”. Also, the pKd entry in the test with PDLIM4, P50479 (setting [3]) is reported as “below the threshold”; with PDZD9, Q8IXQ8, “below the threshold”; in the test with DLG5_2, Q8TDM6 (setting [3]) it was “below the threshold”; with PDZD4, Q76G19 (setting [3]), “below the threshold”; with MPDZ_7, O75970 (setting [3]), “below the threshold”; with AHNAK2, Q8IVF2 (setting [3]), “below the threshold”. In addition, the pKd result with MAGIX, Q9H6Y5 (setting [3]) was “below the threshold”; in the test with MAGI3_5, Q5TCQ9 (setting [3]), “below the threshold”; with PDLIM3, Q53GG5 (setting [3]), 4.1; with GRIP1_1, Q9Y3R0 (setting [3]), “below the threshold”; with MAGI3_3, Q5TCQ9 (setting [3]), “below the threshold”; with MPP5, Q8N3R9 (setting [3]), “below the threshold”. Moreover, the pKd with SIPA1L3, O60292 (setting [3]) was 3.96; with RIMS1, Q86UR5 (setting [3]), “below the threshold”; with CNKSR1, Q969H4, 3.9; with PDZD8, Q8NEN9 (setting [3]), “below the threshold”; with PDZD11, Q5EBL8 (setting [3]) it was “below the threshold”; with PDZD7_1, Q9H5P4 (setting [3]) it was “below the threshold”.

B9: WNV-NS5, Q9Q6P4 (peptide)
chain: RYEDTTLVEDTVL
With B9, the pKd result with DLG3_1, Q92796 (setting [3]) is recorded as “below the threshold”; with USH1C_3, Q9Y6N9 (setting [3]), “below the threshold”; with MAGI3_4, Q5TCQ9 (setting [3]) it was “below the threshold”; with MPDZ_3, O75970 (setting [3]) it was “below the threshold”; with PTPN13_2, Q12923 (setting [3]), “below the threshold”; with TJP1_1, Q07157 (setting [3]), “below the threshold”. The pKd entry with PDLIM4, P50479 (setting [3]) is “below the threshold”; in the test with PDZD9, Q8IXQ8, “below the threshold”; in the test with DLG5_2, Q8TDM6 (setting [3]) it was “below the threshold”; with PDZD4, Q76G19 (setting [3]) it was “below the threshold”; in the test with MPDZ_7, O75970 (setting [3]), “below the threshold”; with AHNAK2, Q8IVF2 (setting [3]), “below the threshold”. The pKd entry is given as “below the threshold” with MAGIX, Q9H6Y5 (setting [3]); “below the threshold” with MAGI3_5, Q5TCQ9 (setting [3]); “below the threshold” with PDLIM3, Q53GG5 (setting [3]); “below the threshold” with GRIP1_1, Q9Y3R0 (setting [3]); “below the threshold” in the test with MAGI3_3, Q5TCQ9 (setting [3]); “below the threshold” in the test with MPP5, Q8N3R9 (setting [3]). Besides, the pKd entry was “below the threshold” with SIPA1L3, O60292 (setting [3]); “below the threshold” with RIMS1, Q86UR5 (setting [3]); “below the threshold” in the test with CNKSR1, Q969H4; “below the threshold” with PDZD8, Q8NEN9 (setting [3]); “below the threshold” with PDZD11, Q5EBL8 (setting [3]); “below the threshold” in the test with PDZD7_1, Q9H5P4 (setting [3]).

B10: ABCA2, Q9BZC7 (peptide)
chain: QLSFNTDTLC
For the molecule B10, in the test with DLG3_1, Q92796 (setting [1]), the pKd came out at 3.61.

B11: FZD4, Q9ULV1 (peptide)
chain: KPGKGSETVV
B11 showed a pKd in the test with DLG3_1, Q92796 (setting [1]) of 4.28.

B12: PFKM, P08237 (peptide)
chain: TRKRSGEAAV
For the molecule B12, in the test with DLG3_1, Q92796 (setting [1]), the pKd entry is “below the threshold”.
